Test results reported in publication PMC12362618, “Development of the First Small-Molecule Inhibitor Targeting Oncostatin M for Treatment of Breast Cancer” (Journal of Medicinal Chemistry, 2025).

Target: T1, immobilized OSM (Homo sapiens, UniProt P13725)
T1 construct: purchased R&D Systems 671-GP
T1 sequence (P13725 26-212 limits assumed): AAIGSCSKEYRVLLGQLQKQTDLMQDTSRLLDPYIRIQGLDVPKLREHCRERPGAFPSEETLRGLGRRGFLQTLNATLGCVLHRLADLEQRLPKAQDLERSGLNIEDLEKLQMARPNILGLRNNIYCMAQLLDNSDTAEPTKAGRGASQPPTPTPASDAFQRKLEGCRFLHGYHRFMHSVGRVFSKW
Assay: SPR binding kinetics of gp130 on immobilized OSM
Conditions: 25 °C
Experimental: SPR assays were used to investigate the ability of SMI-10B13 to disrupt the binding of the OSM receptor. We began our SPR assays by replicating the gp130-to-immobilized OSM binding kinetic experiment published by Chollangi et al. to evaluate the reliability of our setup. In this experiment, increasing concentrations of gp130 were injected, and the association and dissociation phases were monitored. […] However, the signal generated was insufficient for meaningful results, likely due to the suboptimal availability of accessible binding sites for […], although maximum feasible concentrations of both immobilized and injected gp130 were reached. As a result, we shifted our focus to assess whether SMI-10B13 could influence the recruitment of gp130 to OSM in a surface competition binding assay. […] While this effect could be justified by site II competitive binding at high SMI concentrations, the NMR CSP experiments are indicative of SMI binding at site III (Figure ). […]
SPR experiments were performed on a Reichert SR7000 instrument that was fed by a Surveyor LC autosampler and pump. […] The real-time changes in refractive index units of the association and dissociation phases were monitored. […]

Kd: 20.5 nM
B1: gp130: glycoprotein 130 receptor subunit (R&D Systems, cat. #671-GP) injected over immobilized OSM in SPR (protein)
chain: ELLDPCGYISPESPVVQLHSNFTAVCVLKEKCMDYFHVNANYIVWKTNHFTIPKEQYTIINRTASSVTFTDIASLNIQLTCNILTFGQLEQNVYGITIISGLPPEKPKNLSCIVNEGKKMRCEWDGGRETHLETNFTLKSEWATHKFADCKAKRDTPTSCTVDYSTVYFVNIEVWVEAENALGKVTSDHINFDPVYKVKPNPPHNLSVINSEELSSILKLTWTNPSIKSVIILKYNIQYRTKDASTWSQIPPEDTASTRSSFTVQDLKPFTEYVFRIRCMKEDGKGYWSDWSEEASGITYEDRPSKAPSFWYKIDPSHTQGYRTVQLVWKTLPPFEANGKILDYEVTLTRWKSHLQNYTVNATKLTVNLTNDRYLATLTVRNLVGKSDAAVLTIPACDFQATHPVMDLKAFPKDNMLWVEWTTPRESVKKYILEWCVLSDKAPCITDWQQEDGTVHRTYLRGNLAESKCYLITVTPVYADGPGSPESIKAYLKQAPPSKGPTVRTKKVGKNEAVLEWDQLPVDVQNGFIRNYTIFYRTIIGNETAVNVDSSHTEYTLSSLTSDTLYMVRMAAYTDEGGKDGPEFTFTTPKFAQGEIE
